Assay results reported in patent publication US20090111753A1, “Nogo-A Polypeptide Fragments, Variant Nogo Receptor-1 Polypeptides, and Uses Thereof” (Yale University, priority 2004, published 2009).
Residue numbers refer to the chain shown, from its start.

T1: AP-Nogo66 (Homo sapiens, UniProt Q9NQC3)
T1 construct: made in house; NgR mutants: COS-7
T1 sequence (Q9NQC3 1055-1120 limits assumed): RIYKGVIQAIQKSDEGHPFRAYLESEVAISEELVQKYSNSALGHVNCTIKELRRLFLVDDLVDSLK

T2: AP-B4C (Homo sapiens, UniProt Q9NQC3)
T2 construct: a.a; 950-1018 (AmNg B4C); made in house; host or cells: AP ligand: HEK293T conditioned medium; NgR mutants: COS-7
T2 sequence (Q9NQC3 950-1018): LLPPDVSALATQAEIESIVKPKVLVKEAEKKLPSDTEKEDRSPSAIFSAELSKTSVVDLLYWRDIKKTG

T3: AP-Lingo-1 (Homo sapiens, UniProt Q96FE5)
T3 construct: made in house; NgR mutants: COS-7
T3 sequence (Q96FE5 40-538 limits assumed): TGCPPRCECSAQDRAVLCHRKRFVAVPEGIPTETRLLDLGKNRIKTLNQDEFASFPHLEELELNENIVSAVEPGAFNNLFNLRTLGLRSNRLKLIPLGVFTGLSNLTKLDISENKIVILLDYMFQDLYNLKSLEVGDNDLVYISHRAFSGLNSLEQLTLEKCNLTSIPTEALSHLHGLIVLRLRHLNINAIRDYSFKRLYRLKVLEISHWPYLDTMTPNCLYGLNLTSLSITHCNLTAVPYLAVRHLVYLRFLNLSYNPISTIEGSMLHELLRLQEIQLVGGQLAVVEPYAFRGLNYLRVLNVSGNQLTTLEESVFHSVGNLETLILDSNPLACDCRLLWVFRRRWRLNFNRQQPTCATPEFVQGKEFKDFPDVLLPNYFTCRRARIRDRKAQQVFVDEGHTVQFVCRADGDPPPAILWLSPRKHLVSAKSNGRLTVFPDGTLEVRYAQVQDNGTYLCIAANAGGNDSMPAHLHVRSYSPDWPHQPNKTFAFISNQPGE

B1: 114, 117, 139: human NgR1 mutant, listed residues mutated to alanine (protein)
chain: CPGACVCYNEPKVTTSCPQQGLQAVPVGIPAASQRIFLHGNRISHVPAASFRACRNLTILWLHSNVLARIDAAAFTGLALLEQLDLSANAALRSVDPATFHGLGRLHTLHLDACGLQELGPGLFRGLAALQYLYLQDNALQALPDDTFRDLGNLTHLFLHGNRISSVPERAFRGLHSLDRLLLHQNRVAHVHPHAFRDLGRLMTLYLFANNLSALPTEALAPLRALQYLRLNDNPWVCDCRARPLWAWLQKFRGSSSEVPCSLPQRLAGRDLKRLAANDLQGCAVATGPYHPIWTGRATDEEPLGLPKCCQPDAADKASVLEPGRPASAGNALKGRVPPGDSPPGNGSGPRHINDSPFGTLPGSAEPPLTAVRPEGSEPPGFPTSGPRRRPGCSRKNRTRSHCRLGQAGSGGGGTGDSEGSGALPSLTCSLTPLGLALVLWTVLGPC
B2: 237, 256, 259: human NgR1 mutant, listed residues mutated to alanine (protein)
chain: B1 chain with A88D, A91Q, A113R, N211A, R230A, D233A
B3: 61, 108, 131: human NgR1 mutant, listed residues mutated to alanine (protein)
chain: B1 chain with R35A, E82A, A88D, A91Q, R105A, A113R
B4: 63, 65, 87, 89: human NgR1 mutant, listed residues mutated to alanine (protein)
chain: B1 chain with F37A, H39A, W61A, H63A, A88D, A91Q, A113R
B5: 220, 223, 224: human NgR1 mutant, listed residues mutated to alanine (protein)
chain: B1 chain with A88D, A91Q, A113R, H194A, R197A, D198A
B6: 216, 218, 220: human NgR1 mutant, listed residues mutated to alanine (protein)
chain: B1 chain with A88D, A91Q, A113R, H190A, H192A, H194A
B7: 117, 119, 120: human NgR1 mutant, listed residues mutated to alanine (protein)
chain: B1 chain with A88D, R93A, S94A, A113R
B8: 237, 256, 284: human NgR1 mutant, listed residues mutated to alanine (protein)
chain: B1 chain with A88D, A91Q, A113R, N211A, R230A, E258A
B9: 87, 89: human NgR1 mutant, listed residues mutated to alanine (protein)
chain: B1 chain with W61A, H63A, A88D, A91Q, A113R
B10: 256, 259, 284: human NgR1 mutant, listed residues mutated to alanine (protein)
chain: B1 chain with A88D, A91Q, A113R, R230A, D233A, E258A

system: NgR ligands; assay: Binding of alanine substituted NgR mutants to NgR ligands, summary categories; settings: AP-Nogo66, AP-B4C, AP-B4C66, AP-Lingo-1, AP-OMgp and AP-MAG; compared to wild type NgR
Text: (§1) To better define how multiple ligands bind to the NgR protein, we examined a series of Ala-substituted NgR for ligand binding activity. NgR mutagenesis was done using the Quick Change Multisite Directed Mutagenesis Kit (Stratagene catalog #200514). Human NgR1 was used as a template. Ala substitutions were generated for each of the charged residues predicted to be solvent accessible at the surface of the ligand binding domain of NgR (Barton, W. A., et al., Embo J. 22:3291-3302 (2003); He, X. L., et al., Neuron 38:177-185 (2003)). We generated mutants in which 1-8 surface residues localized within 5 A of one another were Ala-substituted. Because of the coiling nature of the LRR structure, as residues juxtaposed on the protein surface are commonly separated by approximately 25 residues in the primary structure. In addition to mutations in specific charged surface patches, other mutations were targeted to glycosylation sites and to regions predicted to be involved in ligand binding based on the NgR structure (Barton, W. A., et al., Embo J. 22:3291-3302 (2003); He, X. L., et al., Neuron 38:177-185 (2003)). In addition, a variant corresponding to a human polymorphism was examined (D259N). None of the mutations altered the Leu residues that define the LRR structure itself or the Cys residues critical in the amino and carboxyl terminal capping domains. The vast majority of such Ala surface substitution mutants were expressed as immunoreactive polypeptides with a molecular weight and an expression level indistinguishable from wild type NgR (FIG. 4C and data not shown).
(§2) This collection of 74 individual NgR mutants was interrogated for AP-Nogo-66, AP-Amino-Nogo-B4C, AP-MAG, AP-OMgp, and AP-Lingo-1 binding. AP-Nogo66, AP-MAG, AP-OMGP and AP-Lingo-1 constructs are described elsewhere (Fournier, A. E., et al., Nature 409:341-346 (2001); Liu, B. P., et al., Science 297:1190-1193 (2002); Mi, S., et al., Nat. Neurosci. 7:221-228 (2004); Wang, K. C., et al., Nature 417:941-944 (2002b)). The properties of the NgR mutants fell into one of three major categories (Table II and FIG. 5). A number of Ala substituted NgR polypeptides bound all of the ligands at wild type levels. […] In addition, a significant extent of the concave surface is dispensable for ligand binding.
Alanine substituted NgR mutants were tested for their binding to AP-Nogo66, AP-B4C, AP-B4C66, AP-Lingo-1, AP-OMgp and AP-MAG and they fall into three categories: (1) Mutants that lose binding to all NgR ligands. (2) Mutants that still maintain binding to all NgR ligands. […] The D259N mutant is an asparagine substitution to mimic a human polymorphism.

ligand binding category of NgR mutant (Table II) | Molecule
Differential binding | B1
Differential binding | B2
Differential binding | B3
Differential binding | B4
Differential binding | B5
Differential binding | B6
Differential binding | B7
Differential binding | B8
Differential binding | B9
Differential binding | B10

molecular target: T1, AP-Nogo66; assay: Binding of AP-Nogo66 to COS-7 cells expressing NgR mutants; set-up: key: ++: WT level; +: weaker than wild type; trace binding; −: no binding; settings: AP-Ng66 5 nM; level of binding compared to wild type NgR
Experimental: (§3) FIG. 4A. […] Binding of AP or AP fused NgR ligands to COS-7 cells expressing different NgR mutants as indicated. The concentrations of ligands applied were: AP, 30 nM; AP-Ng66, 5 nM; AP-Ng33, 10 nM; AP-B4C, 10 nM; AP-B4C66, 0.5 nM; AP-Lingo-1, 10 nM; AP-OMGP, 10 nM; AP-MAG, 30 nM. These concentrations are close to the binding Kd of these proteins to NgR so that any […] is reflected linearly in staining.
(§4) FIG. 4B. AP binding of NgR ligands to NgR mutants expressed as percentage of wild type NgR. AP after incubation with AP fused ligands, AP bound to COS-7 cells expressing NgR or NgR mutants were stained and measured.
as §1, §2
(§5) Binding of Alanine substituted NgR mutants to NgR ligands were compared to wild type NgR and the levels of binding were categorized as ++ (WT level), + (weaker than wild type), tr (trace binding), − (no binding), N/A (not determined). NgR mutant proteins were also subjected to SDS-PAGE and probed by anti-NgR antibodies. Mutants with expression level similar to WT NgR were labeled as “y”.

Ng66 | Molecule
+ | B1
tr | B2
tr | B3
++ | B4
+ | B5
++ | B6
++ | B7
++ | B8
++ | B9
+ | B10

molecular target: T2, AP-B4C; assay: Binding of AP-B4C to COS-7 cells expressing NgR mutants; set-up: key: ++: WT level; +: weaker than wild type; trace binding; −: no binding; settings: AP-B4C 10 nM; level of binding compared to wild type NgR
Experimental: as §3, §4, §1, §2, §5

B4C | Molecule
+ | B1
tr | B2
+ | B3
++ | B4
+ | B5
++ | B6
++ | B7
++ | B8
++ | B9
+ | B10

system: AP-B4C66; assay: Binding of AP-B4C66 to COS-7 cells expressing NgR mutants; set-up: key: ++: WT level; +: weaker than wild type; trace binding; −: no binding; settings: AP-B4C66 0.5 nM; level of binding compared to wild type NgR
Experimental: as §3, §4, §1, §2, §5

Molecule | B4C-66
B1 | +
B2 | +
B3 | +
B4 | ++
B5 | +
B6 | ++
B7 | ++
B8 | ++
B9 | ++
B10 | ++

molecular target: T3, AP-Lingo-1; assay: Binding of AP-Lingo-1 to COS-7 cells expressing NgR mutants; set-up: key: ++: WT level; +: weaker than wild type; trace binding; −: no binding; settings: AP-Lingo-1 10 nM; level of binding compared to wild type NgR
Experimental: as §3, §4, §1, §2, §5

Lingo-1 | Molecule
− | B1
+ | B2
− | B3
− | B4
− | B5
+ | B6
tr | B7
++ | B8
− | B9
++ | B10

system: AP-OMgp; assay: Binding of AP-OMgp to COS-7 cells expressing NgR mutants; set-up: key: ++: WT level; +: weaker than wild type; trace binding; −: no binding; settings: AP-OMGP 10 nM; level of binding compared to wild type NgR
Experimental: as §3, §4, §1, §2, §5

Molecule | OMgp
B1 | −
B2 | tr
B3 | −
B4 | +
B5 | −
B6 | +
B7 | tr
B8 | +
B9 | +
B10 | +

system: AP-MAG; assay: Binding of AP-MAG to COS-7 cells expressing NgR mutants; set-up: key: ++: WT level; +: weaker than wild type; trace binding; −: no binding; settings: AP-MAG 30 nM; level of binding compared to wild type NgR
Experimental: as §3, §4, §1, §2, §5

Molecule | MAG
B1 | −
B2 | −
B3 | −
B4 | −
B5 | tr
B6 | tr
B7 | −
B8 | −
B9 | +
B10 | −
